Assay [1] relates to LS1 strain (ΔadhE ΔldhA double mutant) cells. Briefly: Metabolic complementation (anaerobic growth recovery) of LS1/AL strain. It is filed as cell-based, Escherichia coli. How it is done: (§1) The LS1 mutant strain and the parental BW25113 strain were transformed with the desired plasmid and overnight pre-cultures were grown aerobically in 15 mL Falcon tubes with M9 media (0.4% glucose). These pre-cultures were used to inoculate 10 mL Hungate tubes with M9 medium (0.4% glucose) supplemented with 100 μg/mL ampicillin, 1 mM IPTG and with or without the specific substrate of the dehydrogenase under anaerobic conditions at 37° C. Metabolic complementation was assessed by measuring the optical density at 600 nm every two hours during daytime.

For a further assay, the system named is AL cells. Briefly: 1H NMR analysis of fermentation broth of anaerobic cultures. The format is cell-based, Escherichia coli. Also on record: Substrate concentration: unit not given here.
The test system of the next assay is LS1 strain cells. As to the kind of experiment: GC analysis of fermentation broth. It is filed as cell-based, Escherichia coli. The settings on record: anaerobic, media supplemented with acetone.
A further assay deals with LS5 strain. As to the kind of experiment: Metabolic complementation (anaerobic growth) of quadruple mutant. It is filed as cell-based, Escherichia coli. The settings on record: media supplemented with acetone. The method, then:
as §1
Since in the triple mutants the non-deleted transhydrogenase could still be supporting anaerobic growth under anaerobic fermentation conditions when complemented with an NADPH-dependent oxidoreductase by generating oxidized NAD, the inventors generated a quadruple mutant where adhE, ldhA, sthA and pntA genes were deleted (LS5 strain, FIG. 11).

Assay [2] can be described thus: Enzymatic activity assays with purified enzyme, oxidation of isopropanol. It is filed as biochemical.
A short description of assay [3]: Enzymatic activity assays with purified enzyme, reduction of acetone. The format is biochemical.
Where [4] appears, read: LS1, medium supplemented with acetoin.
Setting [5] is: exogenous substrate acetoin, product 2,3-butanediol.
Where [6] appears, read: exogenous substrate 2-methyl-1-pyrroline.
The mark [7] stands for this setting: exogenous substrate 2-nitrobenzoic acid.
Setting [8] is: exogenous substrate 4-nitrobenzylic alcohol.

B1: pLS3: pUC19 with sADH NADH-dependent from Klebsiella pneumoniae (budC), acetoin reductase (protein, UniProt Q48436 1-256, looked up)
Diacetyl reductase …: MKKVALVTGAGQGIGKAIALRLVKDGFAVAIADYNDATAKAVASEINQAGGRAMAVKVDVSDRDQVFAAVEQARKTLGGFDVIVNNAGVAPSTPIESITPEIVDKVYNINVKGVIWGIQAAVEAFKKEGHGGKIINACSQAGHVGNPELAVYSSSKFAVRGLTQTAARDLAPLGITVNGYCPGIVKTPMWAEIDRQVSEAAGKPLGYGTAEFAKRITLGRLSEPEDVAACVSYLASPDSDYMTGQSLLIDGGMVFN
modifications: expressed from pUC19 plasmid
notes: pUC19 with sADH NADH-dependent from Klebsiella pneumoniae (budC), acetoin reductase
As to B1, the anaerobic growth recovery entry in assay [1] (setting [4]) is “growth recovery was achieved”. In the assay with AL cells (exogenous substrate acetoin), this molecule gave an Acetate concentration of 7.9, an Ethanol concentration of 0, a Formate concentration of 5 and a Lactate concentration of 0. In the assay with AL cells (exogenous substrate acetoin), this molecule yielded a Substrate concentration of 0.2 and a Succinate concentration of 0.7. The Product concentration in the assay on AL cells (setting [5]) was found to be 8.3.

B2: Myxococcus stipitatus imine reductase (protein)
chain: MKPTLTVIGAGRMGSALIKAFLQSGYTTTVWNRTKAKSEPLAKLGAHLADTVRDAVKRSDIIVVNVLDYDTSDQLLRQDEVTRELRGKLLVQLTSGSPALAREQETWARQHGIDYLDGAIMATPDFIGQAECALLYSGSAALFEKHRAVLNVLGGATSHVGEDVGHASALDSALLFQMWGTLFGTLQALAISRAEGIPLEKTTAFIKLTEPVTQGAVADVLTRVQQNRLTADAQTLASLEAHNVAFQHLLALCEERNIHRGVADAMYSVIREAVKAGHGKDDFAILTRFLK
modifications: Myxococcus stipitatus imine reductase
In the assay with AL cells (setting [6]), B2 yielded an Acetate concentration of 4.3, an Ethanol concentration of 0, a Formate concentration of 2.1 and a Lactate concentration of 0. In the assay with AL cells (setting [6]), this molecule came in with a Substrate concentration of 5.5 and a Succinate concentration of 1.2. Moreover, the Product concentration with AL cells (exogenous substrate 2-methyl-1-pyrroline, product 2-methylpyrrolidine) is listed as 6.6.

B3: pLS2: pUC19 with sADH NADH-dependent from Bacillus subtilis (bdhA), acetoin reductase (protein, UniProt O34788 1-346, looked up)
(R,R)-butanediol dehydrogenase: MKAARWHNQKDIRIEHIEEPKTEPGKVKIKVKWCGICGSDLHEYLGGPIFIPVDKPHPLTNETAPVTMGHEFSGEVVEVGEGVENYKVGDRVVVEPIFATHGHQGAYNLDEQMGFLGLAGGGGGFSEYVSVDEELLFKLPDELSYEQGALVEPSAVALYAVRSSKLKAGDKAAVFGCGPIGLLVIEALKAAGATDIYAVELSPERQQKAEELGAIIVDPSKTDDVVAEIAERTGGGVDVAFEVTGVPVVLRQAIQSTTIAGETVIVSIWEKGAEIHPNDIVIKERTVKGIIGYRDIFPAVLSLMKEGYFSADKLVTKKIVLDDLIEEGFGALIKEKSQVKILVRPN
modifications: expressed from pUC19 plasmid
notes: pUC19 with sADH NADH-dependent from Bacillus subtilis (bdhA), acetoin reductase
For B3, the anaerobic growth recovery result in assay [1] (setting [4]) is “growth recovery was achieved”. Also, in the assay with AL cells (exogenous substrate acetoin), the Acetate concentration is 6.7, the Ethanol concentration stood at 0, the Formate concentration stood at 3.7 and the Lactate concentration worked out at 0. In the assay on AL cells (exogenous substrate acetoin), this molecule registered a Substrate concentration of 0 and a Succinate concentration of 0.5. The Product concentration with AL cells (setting [5]) is 8.4.

B4: nsfB nitroreductase from Enterobacter cloacae (protein, listed as Enterobacter cloacae)
chain: MDIISVALKRHSTKAFDASKKLTAEEAEKIKTLLQYSPSSTNSQPWHFIVASTEEGKARVAKSAAGTYVFNERKMLDASHVVVFCAKTAMDDAWLERVVDQEEADGRFNTPEAKAANHKGRTYFADMHRVDLKDDDQWMAKQVYLNVGNFLLGVGAMGLDAVPIEGFDAAILDEEFGLKEKGFTSLVVVPVGHHSVEDFNATLPKSRLPLSTIVTEC
In the assay on AL cells (setting [7]), B4 had an Acetate concentration of 0.7, an Ethanol concentration of 0, a Formate concentration of 0.4 and a Lactate concentration of 0. In the assay on AL cells (setting [7]), this molecule displayed a Substrate concentration of 14.1 and a Succinate concentration of 0. In the assay on AL cells (setting [8]), the Acetate concentration came out at 0.8, the Ethanol concentration is 0, the Formate concentration is given as 0.4 and the Lactate concentration stood at 0. In addition, in the assay on AL cells (setting [8]), the Substrate concentration amounted to 8.28 and the Succinate concentration is on record as 0.

B5: EntNFSB-s1: nitroreductase variant selected for 2-NBA (protein)
chain: MDIISVALKRHSTKAFDASKKLTAEEAEKIKTLLQYSPSAINSQPWHFIVASTEEGKARVAKSAAGTYVFNERKMLDASHVVVFCAKTAMDDAWLERVVDQEEADGRFNTPEAKAANHKGRTYAADMHRVDLKDDDQWMAKQVYLNVGNFLLGVGAMGLDAVPIEGFDAAILDEEFGLKEKGFTSLVVVPVGHHSVEDFNATLPKSRLPLSTIVTEC
modifications: amino acid variant of Enterobacter cloacae nitroreductase
notes: nitroreductase variant selected for 2-NBA
In the assay with AL cells (setting [7]), B5 had an Acetate concentration of 4.4, an Ethanol concentration of 0, a Formate concentration of 2.9 and a Lactate concentration of 0. In the assay with AL cells (setting [7]), this molecule yielded a Substrate concentration of 12.4 and a Succinate concentration of 0.3.

B6: EntNFSB-s2: nitroreductase variant identified for cells grown with 4-nitrobenzyl alcohol (protein)
chain: MDIISVALKRHSTKAFDASKKLTAEEAEKIKTLLQYSPSSLNSQPWHFIVASTEEGKARVAKSAAGTLVFNERKMLDASHVVVFCAKTAMDDAWLERVVDQEEADGRFNTPEAKAANHKGRTYLADMHRVDLKDDDQWMAKQVYLNVGNFLLGVGAMGLDAVPIEGFDAAILDEEFGLKEKGFTSLVVVPVGHHSVEDFNATLPKSRLPLSTIVTEC
modifications: no acid variant of Enterobacter cloacae nitroreductase
notes: nitroreductase variant identified for cells grown with 4-nitrobenzyl alcohol
In the assay with AL cells (setting [8]), B6 came in with an Acetate concentration of 13.2, an Ethanol concentration of 0, a Formate concentration of 7.9 and a Lactate concentration of 0. In the assay on AL cells (setting [8]), this molecule gave a Substrate concentration of 0 and a Succinate concentration of 1.

B7: CBADH-s: CBADH variant with substitutions G198D, S199Y and Y218P, uses NADH instead of NADPH (protein)
chain: MKGFAMLGINKLGWIEKERPVAGSYDAIVRPLAVSPCTSDIHTVFEGALGDRKNMILGHEAVGEVVEVGSEVKDFKPGDRVIVPCTTPDWRSLEVQAGFQQHSNGMLAGWKFSNFKDGVFGEYFHVNDADMNLAILPKDMPLENAVMITDMMTTGFHGAELADIQMGSSVVVIGIGAVGLMGIAGAKLRGAGRIIGVDYRPICVEAAKFYGATDILNPKNGHIVDQVMKLTNGKGVDRVIMAGGGSETLSQAVSMVKPGGIISNINYHGSGDALLIPRVEWGCGMAHKTIKGGLCPGGRLRAEMLRDMVVYNRVDLSKLVTHVYHGFDHIEEALLLMKDKPKDLIKAVVIL
modifications: amino acid variant of CBADH
notes: CBADH variant with substitutions G198D, S199Y and Y218P, uses NADH instead of NADPH
As to B7, the “isopropanol in fermentation broth compared with pLS6” value with LS1 strain cells is given as “much higher levels”. For the same molecule, in the assay with LS5 strain, the anaerobic growth result is listed as “anaerobic growth is restored”. Besides, the “increase in activity compared to the wild type” value in assay [2] (oxidation of isopropanol to acetone, NAD+ as the cofactor, purified enzyme) is reported as “io”. The “activity with NADP(H) as the cofactor” value in assay [2] (oxidation reaction) is listed as “no significant activity”. In addition, in assay [1] (LS1, media supplemented with acetone), the anaerobic growth recovery entry is given as “allowed growth recovery”. Also, in the assay with AL cells (exogenous substrate acetone), the Acetate concentration was determined as 13, the Ethanol concentration came out at 0, the Formate concentration was determined as 9.9 and the Lactate concentration was 0. For the same molecule, in the assay on AL cells (exogenous substrate acetone), the Substrate concentration stood at 0.5 and the Succinate concentration came out at 1.1. Further, in the assay on AL cells (exogenous substrate acetone, product isopropanol), the Product concentration is reported as 12.7. For the same molecule, the “increase in activity compared to the wild type” value in assay [3] (reduction of acetone to isopropanol, NADH as the cofactor, purified enzyme) was 4.6 fold. For the same molecule, the “activity with NADP(H) as the cofactor” value in assay [3] (reduction reaction) is reported as “no significant activity”.

Source of the values: US20210277441A1, “METHOD OF SELECTING A POLYPEPTIDE OF INTEREST” (IMPERIAL COLLEGE INNOVATIONS LIMITED, priority 2018, published 2021).
